For one substance, Kd results are on record in publication PMC3750215.

For this data set, the system named is Mdj1 (wt, mature). Kind of data set: EMSA. The following applies: EMSA with 0.36 nM 32P-ori5 DNA; buffer, salt, pH and temperature not given (as described in ref 35).

Usually Kd stands for a measure of binding affinity in units of concentration. Take ori5 71 bp fragment: the Kd came out at 0.21 µM.
